From PMC11272584 (Nature Metabolism, 2024) come the findings set out here.

Positions count from the first letter of the chain named.

The target in one experiment is T1, GIPR S415I (human) (UniProt P48546).
T1 sequence: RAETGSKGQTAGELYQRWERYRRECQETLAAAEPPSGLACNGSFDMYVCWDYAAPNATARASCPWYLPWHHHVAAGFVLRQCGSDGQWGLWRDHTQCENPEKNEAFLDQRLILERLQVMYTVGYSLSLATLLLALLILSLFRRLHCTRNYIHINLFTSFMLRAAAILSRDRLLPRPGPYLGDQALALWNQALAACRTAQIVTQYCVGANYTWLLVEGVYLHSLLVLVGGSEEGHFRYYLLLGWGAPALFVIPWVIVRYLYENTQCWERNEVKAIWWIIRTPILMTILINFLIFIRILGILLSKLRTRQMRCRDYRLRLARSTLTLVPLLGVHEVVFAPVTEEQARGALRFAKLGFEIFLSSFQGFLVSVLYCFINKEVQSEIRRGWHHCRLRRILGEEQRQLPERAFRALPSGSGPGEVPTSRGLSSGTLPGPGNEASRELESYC

The target in a further experiment is T2, GIPR A185V (human) (UniProt P48546).
T2 sequence: T1 sequence with A164V, I394S

For a further experiment, the target named is T3, GIPR A150T (human) (UniProt P48546).
T3 sequence: T1 sequence with A129T, I394S

Another experiment deals with T4, GIPR T168A (human) (UniProt P48546).
T4 sequence: T1 sequence with T147A, I394S

The target of a further experiment is T5, GIPR S382T (human) (UniProt P48546).
T5 sequence: T1 sequence with S361T, I394S

In the next experiment the target is T6, GIPR E463Q (human) (UniProt P48546).
T6 sequence: T1 sequence with I394S, E442Q

Regarding “β-arrestin 2 (Rluc8-Arrestin-3-Sp1) (from UniProt P32121 1-409) (natural protein)”, the β-arrestin 2 recruitment (BRET) on stimulation with GIP(1-42): logEC50 (Arrestin) (log M (inferred)) in the experiment with GIPR S415I (human) was -9.12; with GIPR A185V (human) it was -8.96; with GIPR A150T (human), -8.92; in the experiment with GIPR T168A (human), -9.27; in the experiment with GIPR S382T (human), -9.39; with GIPR E463Q (human) it was -9.08.
